Laboratory results published in patent US20230365662A1.
“And” between values parts separate entries of the source, which are not always exact repeats. Identical values can stand only once.

What was measured:
[1] = molecular target: HRgpA-6H (Porphyromonas gingivalis) (UniProt P28784); assay: ELISA, Fab FASEBA supernatant on coated HRgpA-6H
[2] = molecular target: HRgpA-6H (Porphyromonas gingivalis) (UniProt P28784); assay: ELISA on coated HRgpA-6H

UniProt P28784, sequence (P28784 228-991 limits assumed): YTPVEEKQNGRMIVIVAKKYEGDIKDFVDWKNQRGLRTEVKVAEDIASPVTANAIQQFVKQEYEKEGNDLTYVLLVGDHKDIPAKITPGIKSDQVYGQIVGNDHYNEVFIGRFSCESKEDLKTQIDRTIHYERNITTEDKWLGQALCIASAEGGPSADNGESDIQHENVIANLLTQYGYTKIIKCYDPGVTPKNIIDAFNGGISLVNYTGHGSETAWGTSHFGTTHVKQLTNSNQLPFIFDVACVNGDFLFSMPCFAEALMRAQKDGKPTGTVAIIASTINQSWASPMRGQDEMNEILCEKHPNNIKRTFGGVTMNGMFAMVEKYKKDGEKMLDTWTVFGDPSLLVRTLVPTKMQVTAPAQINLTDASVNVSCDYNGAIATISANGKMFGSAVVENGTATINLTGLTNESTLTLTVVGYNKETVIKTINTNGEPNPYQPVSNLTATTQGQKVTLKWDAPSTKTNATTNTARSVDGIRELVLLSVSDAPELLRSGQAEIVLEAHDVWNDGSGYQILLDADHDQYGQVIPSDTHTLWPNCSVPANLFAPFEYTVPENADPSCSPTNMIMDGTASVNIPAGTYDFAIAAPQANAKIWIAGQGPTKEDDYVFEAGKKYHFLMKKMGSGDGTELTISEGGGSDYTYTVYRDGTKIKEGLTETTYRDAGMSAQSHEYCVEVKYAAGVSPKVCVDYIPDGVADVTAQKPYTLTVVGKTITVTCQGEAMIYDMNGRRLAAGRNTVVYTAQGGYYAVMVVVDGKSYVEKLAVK

Row | Binder | OD450nm [1] | Ratio OD(Variant)/OD(WT) [1] | OD450nm [2] | Ratio OD(Variant)/OD(WT) [2]
1 | parental mouse (KB001) Fab FASEBA, VL variant L55R/S51G (Fab, V domains shown) VH: EVQLKQSGPGLVAPSQSLSITCTVSGFSLSIYSVHWVRQPPGKGLEWLGMIWGGGSSDYNSALKSRLSISKDNSKSQVFLKMNSLQTDDTAMYYCARNGNFYAMDYWGQGTSVTVSS VL: QIVLTQSPAIMSASLGERVTMTCTASSSVSSSFLHWYQQKPGSSPQLWIYGTSNRASGVPARFSGSGSGTSYSLTISSMEAEDAATYYCHQYHHSPYIYTFGGGTKLEIK | 0.748 OD450nm | 0.955 ratio to WT |  | 
2 | KB001 mouse Fab FASEBA VH A62I (Fab, V domains shown) VH: EVQLKQSGPGLVAPSQSLSITCTVSGFSLSIYSVHWVRQPPGKGLEWLGMIWGGGSSDYNSILKSRLSISKDNSKSQVFLKMNSLQTDDTAMYYCARNGNFYAMDYWGQGTSVTVSS VL: QIVLTQSPAIMSASLGERVTMTCTASSSVSSSFLHWYQQKPGSSPQLWIYSTSNLASGVPARFSGSGSGTSYSLTISSMEAEDAATYYCHQYHHSPYIYTFGGGTKLEIK |  |  | 0.702 and 0.808 | 0.803 and 0.924
3 | KB001 mouse Fab FASEBA VH K64V (Fab, V domains shown) VH: EVQLKQSGPGLVAPSQSLSITCTVSGFSLSIYSVHWVRQPPGKGLEWLGMIWGGGSSDYNSALVSRLSISKDNSKSQVFLKMNSLQTDDTAMYYCARNGNFYAMDYWGQGTSVTVSS VL: QIVLTQSPAIMSASLGERVTMTCTASSSVSSSFLHWYQQKPGSSPQLWIYSTSNLASGVPARFSGSGSGTSYSLTISSMEAEDAATYYCHQYHHSPYIYTFGGGTKLEIK |  |  | 0.715 and 0.714 | 0.865 and 0.863
4 | KB001 mouse Fab FASEBA VH L63M (Fab, V domains shown) VH: EVQLKQSGPGLVAPSQSLSITCTVSGFSLSIYSVHWVRQPPGKGLEWLGMIWGGGSSDYNSAMKSRLSISKDNSKSQVFLKMNSLQTDDTAMYYCARNGNFYAMDYWGQGTSVTVSS VL: QIVLTQSPAIMSASLGERVTMTCTASSSVSSSFLHWYQQKPGSSPQLWIYSTSNLASGVPARFSGSGSGTSYSLTISSMEAEDAATYYCHQYHHSPYIYTFGGGTKLEIK |  |  | 0.8 | 0.915
5 | KB001 mouse Fab FASEBA VH K64M (Fab, V domains shown) VH: EVQLKQSGPGLVAPSQSLSITCTVSGFSLSIYSVHWVRQPPGKGLEWLGMIWGGGSSDYNSALMSRLSISKDNSKSQVFLKMNSLQTDDTAMYYCARNGNFYAMDYWGQGTSVTVSS VL: QIVLTQSPAIMSASLGERVTMTCTASSSVSSSFLHWYQQKPGSSPQLWIYSTSNLASGVPARFSGSGSGTSYSLTISSMEAEDAATYYCHQYHHSPYIYTFGGGTKLEIK |  |  | 0.799 and 0.757 and 0.78 | 0.966 and 0.915 and 0.943
6 | KB001 mouse Fab FASEBA VH K64G (Fab, V domains shown) VH: EVQLKQSGPGLVAPSQSLSITCTVSGFSLSIYSVHWVRQPPGKGLEWLGMIWGGGSSDYNSALGSRLSISKDNSKSQVFLKMNSLQTDDTAMYYCARNGNFYAMDYWGQGTSVTVSS VL: QIVLTQSPAIMSASLGERVTMTCTASSSVSSSFLHWYQQKPGSSPQLWIYSTSNLASGVPARFSGSGSGTSYSLTISSMEAEDAATYYCHQYHHSPYIYTFGGGTKLEIK |  |  | 0.806 | 0.975
7 | KB001 mouse Fab FASEBA VH A62L (Fab, V domains shown) VH: EVQLKQSGPGLVAPSQSLSITCTVSGFSLSIYSVHWVRQPPGKGLEWLGMIWGGGSSDYNSLLKSRLSISKDNSKSQVFLKMNSLQTDDTAMYYCARNGNFYAMDYWGQGTSVTVSS VL: QIVLTQSPAIMSASLGERVTMTCTASSSVSSSFLHWYQQKPGSSPQLWIYSTSNLASGVPARFSGSGSGTSYSLTISSMEAEDAATYYCHQYHHSPYIYTFGGGTKLEIK |  |  | 0.812 | 0.929
8 | KB001 mouse Fab FASEBA VH K64S (Fab, V domains shown) VH: EVQLKQSGPGLVAPSQSLSITCTVSGFSLSIYSVHWVRQPPGKGLEWLGMIWGGGSSDYNSALSSRLSISKDNSKSQVFLKMNSLQTDDTAMYYCARNGNFYAMDYWGQGTSVTVSS VL: QIVLTQSPAIMSASLGERVTMTCTASSSVSSSFLHWYQQKPGSSPQLWIYSTSNLASGVPARFSGSGSGTSYSLTISSMEAEDAATYYCHQYHHSPYIYTFGGGTKLEIK |  |  | 0.808 | 0.977
9 | KB001 mouse Fab FASEBA VH A62E (Fab, V domains shown) VH: EVQLKQSGPGLVAPSQSLSITCTVSGFSLSIYSVHWVRQPPGKGLEWLGMIWGGGSSDYNSELKSRLSISKDNSKSQVFLKMNSLQTDDTAMYYCARNGNFYAMDYWGQGTSVTVSS VL: QIVLTQSPAIMSASLGERVTMTCTASSSVSSSFLHWYQQKPGSSPQLWIYSTSNLASGVPARFSGSGSGTSYSLTISSMEAEDAATYYCHQYHHSPYIYTFGGGTKLEIK |  |  | 0.854 | 0.977
10 | KB001 mouse Fab FASEBA VH K64H (Fab, V domains shown) VH: EVQLKQSGPGLVAPSQSLSITCTVSGFSLSIYSVHWVRQPPGKGLEWLGMIWGGGSSDYNSALHSRLSISKDNSKSQVFLKMNSLQTDDTAMYYCARNGNFYAMDYWGQGTSVTVSS VL: QIVLTQSPAIMSASLGERVTMTCTASSSVSSSFLHWYQQKPGSSPQLWIYSTSNLASGVPARFSGSGSGTSYSLTISSMEAEDAATYYCHQYHHSPYIYTFGGGTKLEIK |  |  | 0.752 | 0.909
11 | KB001 mouse Fab FASEBA VH L63H (Fab, V domains shown) VH: EVQLKQSGPGLVAPSQSLSITCTVSGFSLSIYSVHWVRQPPGKGLEWLGMIWGGGSSDYNSAHKSRLSISKDNSKSQVFLKMNSLQTDDTAMYYCARNGNFYAMDYWGQGTSVTVSS VL: QIVLTQSPAIMSASLGERVTMTCTASSSVSSSFLHWYQQKPGSSPQLWIYSTSNLASGVPARFSGSGSGTSYSLTISSMEAEDAATYYCHQYHHSPYIYTFGGGTKLEIK |  |  | 0.818 and 0.843 and 0.822 | 0.936 and 0.965 and 0.941
12 | KB001 mouse Fab FASEBA VH A62F (Fab, V domains shown) VH: EVQLKQSGPGLVAPSQSLSITCTVSGFSLSIYSVHWVRQPPGKGLEWLGMIWGGGSSDYNSFLKSRLSISKDNSKSQVFLKMNSLQTDDTAMYYCARNGNFYAMDYWGQGTSVTVSS VL: QIVLTQSPAIMSASLGERVTMTCTASSSVSSSFLHWYQQKPGSSPQLWIYSTSNLASGVPARFSGSGSGTSYSLTISSMEAEDAATYYCHQYHHSPYIYTFGGGTKLEIK |  |  | 0.843 and 0.733 | 0.965 and 0.839
13 | KB001 mouse Fab FASEBA VH K64Y (Fab, V domains shown) VH: EVQLKQSGPGLVAPSQSLSITCTVSGFSLSIYSVHWVRQPPGKGLEWLGMIWGGGSSDYNSALYSRLSISKDNSKSQVFLKMNSLQTDDTAMYYCARNGNFYAMDYWGQGTSVTVSS VL: QIVLTQSPAIMSASLGERVTMTCTASSSVSSSFLHWYQQKPGSSPQLWIYSTSNLASGVPARFSGSGSGTSYSLTISSMEAEDAATYYCHQYHHSPYIYTFGGGTKLEIK |  |  | 0.763 | 0.923
14 | KB001 mouse Fab FASEBA VH K64I (Fab, V domains shown) VH: EVQLKQSGPGLVAPSQSLSITCTVSGFSLSIYSVHWVRQPPGKGLEWLGMIWGGGSSDYNSALISRLSISKDNSKSQVFLKMNSLQTDDTAMYYCARNGNFYAMDYWGQGTSVTVSS VL: QIVLTQSPAIMSASLGERVTMTCTASSSVSSSFLHWYQQKPGSSPQLWIYSTSNLASGVPARFSGSGSGTSYSLTISSMEAEDAATYYCHQYHHSPYIYTFGGGTKLEIK |  |  | 0.743 and 0.756 and 0.715 | 0.898 and 0.914 and 0.865
15 | KB001 mouse Fab FASEBA VH A62D (Fab, V domains shown) VH: EVQLKQSGPGLVAPSQSLSITCTVSGFSLSIYSVHWVRQPPGKGLEWLGMIWGGGSSDYNSDLKSRLSISKDNSKSQVFLKMNSLQTDDTAMYYCARNGNFYAMDYWGQGTSVTVSS VL: QIVLTQSPAIMSASLGERVTMTCTASSSVSSSFLHWYQQKPGSSPQLWIYSTSNLASGVPARFSGSGSGTSYSLTISSMEAEDAATYYCHQYHHSPYIYTFGGGTKLEIK |  |  | 0.853 and 0.851 | 0.976 and 0.974
16 | KB001 mouse Fab FASEBA VH L63V (Fab, V domains shown) VH: EVQLKQSGPGLVAPSQSLSITCTVSGFSLSIYSVHWVRQPPGKGLEWLGMIWGGGSSDYNSAVKSRLSISKDNSKSQVFLKMNSLQTDDTAMYYCARNGNFYAMDYWGQGTSVTVSS VL: QIVLTQSPAIMSASLGERVTMTCTASSSVSSSFLHWYQQKPGSSPQLWIYSTSNLASGVPARFSGSGSGTSYSLTISSMEAEDAATYYCHQYHHSPYIYTFGGGTKLEIK |  |  | 0.784 and 0.77 and 0.778 | 0.897 and 0.881 and 0.89
17 | KB001 mouse Fab FASEBA VH A62V (Fab, V domains shown) VH: EVQLKQSGPGLVAPSQSLSITCTVSGFSLSIYSVHWVRQPPGKGLEWLGMIWGGGSSDYNSVLKSRLSISKDNSKSQVFLKMNSLQTDDTAMYYCARNGNFYAMDYWGQGTSVTVSS VL: QIVLTQSPAIMSASLGERVTMTCTASSSVSSSFLHWYQQKPGSSPQLWIYSTSNLASGVPARFSGSGSGTSYSLTISSMEAEDAATYYCHQYHHSPYIYTFGGGTKLEIK |  |  | 0.742 and 0.757 | 0.849 and 0.866
18 | KB001 mouse Fab FASEBA VH L63Y (Fab, V domains shown) VH: EVQLKQSGPGLVAPSQSLSITCTVSGFSLSIYSVHWVRQPPGKGLEWLGMIWGGGSSDYNSAYKSRLSISKDNSKSQVFLKMNSLQTDDTAMYYCARNGNFYAMDYWGQGTSVTVSS VL: QIVLTQSPAIMSASLGERVTMTCTASSSVSSSFLHWYQQKPGSSPQLWIYSTSNLASGVPARFSGSGSGTSYSLTISSMEAEDAATYYCHQYHHSPYIYTFGGGTKLEIK |  |  | 0.836 and 0.846 and 0.801 | 0.957 and 0.968 and 0.916
19 | KB001 mouse Fab FASEBA VH L63F (Fab, V domains shown) VH: EVQLKQSGPGLVAPSQSLSITCTVSGFSLSIYSVHWVRQPPGKGLEWLGMIWGGGSSDYNSAFKSRLSISKDNSKSQVFLKMNSLQTDDTAMYYCARNGNFYAMDYWGQGTSVTVSS VL: QIVLTQSPAIMSASLGERVTMTCTASSSVSSSFLHWYQQKPGSSPQLWIYSTSNLASGVPARFSGSGSGTSYSLTISSMEAEDAATYYCHQYHHSPYIYTFGGGTKLEIK |  |  | 0.743 | 0.85
20 | KB001 mouse Fab FASEBA VH A62R (Fab, V domains shown) VH: EVQLKQSGPGLVAPSQSLSITCTVSGFSLSIYSVHWVRQPPGKGLEWLGMIWGGGSSDYNSRLKSRLSISKDNSKSQVFLKMNSLQTDDTAMYYCARNGNFYAMDYWGQGTSVTVSS VL: QIVLTQSPAIMSASLGERVTMTCTASSSVSSSFLHWYQQKPGSSPQLWIYSTSNLASGVPARFSGSGSGTSYSLTISSMEAEDAATYYCHQYHHSPYIYTFGGGTKLEIK |  |  | 0.733 and 0.847 and 0.809 | 0.839 and 0.969 and 0.926
